Measurements: patent US7247438

Molecular target: T1, purified, recombinant Yama/caspase-3, P42574
T1 chain: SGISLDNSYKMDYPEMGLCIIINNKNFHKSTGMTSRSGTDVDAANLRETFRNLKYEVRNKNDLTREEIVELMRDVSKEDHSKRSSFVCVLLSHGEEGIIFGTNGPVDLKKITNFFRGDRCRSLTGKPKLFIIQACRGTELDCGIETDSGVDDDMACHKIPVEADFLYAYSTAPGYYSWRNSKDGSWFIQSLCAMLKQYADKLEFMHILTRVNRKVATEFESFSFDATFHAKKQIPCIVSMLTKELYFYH
Test: recombinant enzyme labelled with biotinylated inhibitor, blot
Settings: remark: other sources report otherwise

Binder YVAD (modifications not checked) [biotin-YVADamk] has a fold more enzyme needed for detection of 100 times.
